# Measurements: PMC3597468 (Journal of controlled release : official journal of the …, 2012)
# Target: the molecule itself
# Assay: cross-linking
protein,measurement,value
"Catalase, from bovine liver (enzyme, UniProt P00432 1-527, looked up) MADNRDPASDQMKHWKEQRAAQKPDVLTTGGGNPVGDKLNSLTVGPRGPLLVQDVVFTDEMAHFDRERIPERVVHAKGAGAFGYFEVTHDITRYSKAKVFEHIGKRTPIAVRFSTVAGESGSADTVRDPRGFAVKFYTEDGNWDLVGNNTPIFFIRDALLFPSFIHSQKRNPQTHLKDPDMVWDFWSLRPESLHQVSFLFSDRGIPDGHRHMNGYGSHTFKLVNANGEAVYCKFHYKTDQGIKNLSVEDAARLAHEDPDYGLRDLFNAIATGNYPSWTLYIQVMTFSEAEIFPFNPFDLTKVWPHGDYPLIPVGKLVLNRNPVNYFAEVEQLAFDPSNMPPGIEPSPDKMLQGRLFAYPDTHRHRLGPNYLQIPVNCPYRARVANYQRDGPMCMMDNQGGAPNYYPNSFSAPEHQPSALEHRTHFSGDVQRFNSANDDNVTQVRTFYLKVLNEEQRKRLCENIAGHLKDAQLFIQKKAVKNFSDVHPEYGSRIQALLDKYNEEKPKNAVHTYVQHGSHLSAREKANL",binding result,binds
